Laboratory results taken from PMC3882260.

Biological target: Flag-NEO1 (UniProt Q92859)
Test: immunostaining of cells or tissue; plate-based cell binding in 384-well plates: transfected COS-7 cells, blocked with PBS 1% BSA, CBLN4-Fc for 1 h on ice, fixed, detected with Alexa Fluor-488 anti-human IgG; candidate screen, titration series and DCC domain mapping

Flag-NEO1, sequence (Q92859 34-1461): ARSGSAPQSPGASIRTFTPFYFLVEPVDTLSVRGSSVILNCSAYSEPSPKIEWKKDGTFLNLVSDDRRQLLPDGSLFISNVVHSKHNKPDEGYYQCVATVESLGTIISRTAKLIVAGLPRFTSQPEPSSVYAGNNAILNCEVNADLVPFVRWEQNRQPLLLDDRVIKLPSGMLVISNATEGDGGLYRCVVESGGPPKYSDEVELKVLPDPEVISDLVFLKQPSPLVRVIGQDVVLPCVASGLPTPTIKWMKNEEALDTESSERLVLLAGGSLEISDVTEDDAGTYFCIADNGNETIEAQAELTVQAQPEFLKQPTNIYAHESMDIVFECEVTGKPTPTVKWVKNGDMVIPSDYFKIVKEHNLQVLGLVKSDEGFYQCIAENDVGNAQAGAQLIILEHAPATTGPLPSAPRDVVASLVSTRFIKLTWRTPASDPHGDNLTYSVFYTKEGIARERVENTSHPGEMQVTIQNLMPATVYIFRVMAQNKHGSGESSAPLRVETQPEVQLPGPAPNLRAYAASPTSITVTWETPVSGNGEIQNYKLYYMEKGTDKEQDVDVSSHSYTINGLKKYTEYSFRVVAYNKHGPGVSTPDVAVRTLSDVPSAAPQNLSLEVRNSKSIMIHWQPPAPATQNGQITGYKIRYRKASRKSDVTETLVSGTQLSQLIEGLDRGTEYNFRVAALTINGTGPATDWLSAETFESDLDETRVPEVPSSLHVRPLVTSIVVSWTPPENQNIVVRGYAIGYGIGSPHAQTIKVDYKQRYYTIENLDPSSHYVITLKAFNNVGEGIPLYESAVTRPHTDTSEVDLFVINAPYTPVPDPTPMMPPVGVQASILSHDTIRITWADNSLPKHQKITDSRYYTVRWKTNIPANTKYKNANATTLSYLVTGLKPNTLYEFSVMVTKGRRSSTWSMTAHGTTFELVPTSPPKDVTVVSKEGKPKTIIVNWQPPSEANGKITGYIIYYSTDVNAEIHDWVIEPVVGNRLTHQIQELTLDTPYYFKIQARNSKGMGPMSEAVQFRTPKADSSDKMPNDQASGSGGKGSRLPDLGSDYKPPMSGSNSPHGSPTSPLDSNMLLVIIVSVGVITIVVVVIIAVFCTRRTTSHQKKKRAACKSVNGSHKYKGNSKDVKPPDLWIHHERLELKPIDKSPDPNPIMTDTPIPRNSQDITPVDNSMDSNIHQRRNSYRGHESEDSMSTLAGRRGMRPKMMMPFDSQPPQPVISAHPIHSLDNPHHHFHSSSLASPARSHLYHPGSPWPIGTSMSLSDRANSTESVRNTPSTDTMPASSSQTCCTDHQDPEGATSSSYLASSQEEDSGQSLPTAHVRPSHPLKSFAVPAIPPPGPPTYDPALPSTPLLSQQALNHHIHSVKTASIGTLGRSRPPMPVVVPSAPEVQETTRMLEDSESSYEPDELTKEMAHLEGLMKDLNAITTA

human CBLN4 (M1-L201) with a C-terminal Fc tag (from UniProt Q9NTU7 28-201) (Fc fusion)
lowest CBLN4-Fc concentration at which binding was detected: 280 nM
